Numbering of substitutions follows the chain as printed.

To fix the notation:
B1: P1AF1284 H2L2 anti-idiotypic IgG1 (antibody, V domains shown)
VH: QVQLVQSGSELKKPGASVKVSCKASGYTVTDYSMNWVRQAPGQGLEWMGWINTETGEPRYTDDFTGRFVFSLDTSVSTAYLQISSLKAEDTAVYYCAREGDYDVFDYWGQGTLVTVSS
VL: DIVMTQSPDSLAVSLGERATINCKSSKSVSTSSYSYMHWYQQKPGQPPKLLIKYVSYLESGVPDRFSGSGSGTDFTLTISSLQAEDVAVYYCQHSREFPYTFGQGTKLEIK
B2: P1AF1281 H1L1 anti-idiotypic IgG1 (antibody, V domains shown)
VH: B1 VH with T65K
VL: B1 VL with K24R, S25A
B3: P1AF1286 H3L3 anti-idiotypic IgG1 (antibody, V domains shown)
VH: B1 VH with D62Q, D63G, T65K
VL: B1 VL with K24R, S25A, H94Q
B4: P1AF1283 H1L2 anti-idiotypic IgG1 (antibody, V domains shown)
VH: B1 VH with T65K
VL: B1 VL
B5: P1AF1287 H7L5 anti-idiotypic IgG1 (antibody, V domains shown)
VH: QVQLVQSGAEVKKPGASVKVSCKASGYTVTDYSMNWVRQAPGQGLEWMGWINTETGEPRYTDDFKGRVTMTRDTSISTAYMELSRLRSDDTAVYYCAREGDYDVFDYWGQGTLVTVSS
VL: B1 VL with K24R, S25A, K53Y
B6: P1AF1285 H3L2 anti-idiotypic IgG1 (antibody, V domains shown)
VH: B1 VH with D62Q, D63G, T65K
VL: B1 VL

The target in one experiment is biotinylated anti-human CD3ε antibody (capture surface of Example 6). The experiment in a line: SPR Biacore T200; IgG 1 ug/ml over captured biotinylated anti-human CD3ε antibody, normalised to anti-human IgG surface and to the unstressed sample; sample stressed 14 d/37° C. pH 7.4.
Consider B1, for which the Relative active concentrations (%) stood at 93%.
In turn, B2 displayed a Relative active concentrations (%) of 93%.
In turn, B3 displayed a Relative active concentrations (%) of 87%.
B4 yielded a Relative active concentrations (%) of 94%.
Molecule B5 gave a Relative active concentrations (%) of 80%.
Turning to B6, the Relative active concentrations (%) came to 94%.

The target is the same in a further experiment. The experiment in a line: SPR Biacore T200; IgG 1 ug/ml over captured biotinylated anti-human CD3ε antibody, normalised to anti-human IgG surface and to the unstressed sample; sample stressed 14 d/40° C. pH 6.0. (In general: SPR reads the build-up and loss of mass on a sensor chip optically.)
Molecule B1 came in with a Relative active concentrations (%) of 98%.
For the molecule B2, the Relative active concentrations (%) is 99%.
The same measure, in the same setting: next, B3: 97%; B4: 97%; B5: 98%.
The same measure, in the same setting: next, B6: 97%.

Source of the values: patent US20260035462A1.
